This note sets out measurements from the nanobody polyreactivity screen of Harvey et al. (2022).

This data set can be described thus: yeast display, Sf9 membrane polyspecificity reagent, FACS + sequencing; frameworks hold sequencing errors. The procedure, abridged:
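Using colony PCR, genes from sorted yeast display clones were amplified, then sequenced on MiSeq at 2 × 250 and filtered by CDR length. The clones had been stained with 10% biotinylated, detergent-solubilized Sf9 membrane reagent for 1 hour at 4 °C and sorted by FACS into low and high (top ~1%) gates on anti-HA and streptavidin fluorescence. Polyreactivity labels come from the gate of origin.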
For the sequence “QVQLVESGGGLVQAGGSLRLSCAASGIIFGRYAMGWYRQAPGKERELVAAITSGGSTSYADSVKGRFTISRDNAKNTVYLQMNSLKPEDTAVYYCAVVFVWGWPGYYWGQGTQVTVSS”, the “polyreactivity (PSR sort gate)” value is “high polyreactivity”.
For the sequence “QVQLVESGGGLVQAGGSLRLSCAASGIIFYYYAMGWYRQPPGKERELVAAISWSGDGTYYADSVKGRFTISRDNPKNTVYLQMNSLKPEDTAVYYCAALNDGFSGYDYLDEYTDYGYWGQGTQVTVSS”, the “polyreactivity (PSR sort gate)” value is on record as “low polyreactivity”.
Under “QVQLVESGGGLVQAGGSLRLSCAASGGTFVLNAMGWYRQAPGKERELVATISSGGGTDYADSVKGRFTISRDNAKNTVYLQMNSLKPEDTAVYYCNTDYILWGDYDYWGQGTQVTVSS” stands “low polyreactivity”; under “QVQLVESGGGLVQAGGSLRLSCAASGFTFVKYAMGWYRQAPGKERELVAAISRSGGRTYYADSVKGRFTISLDNAKNTVYLQMNSLKPEDTAVYYCAADVATTHELDYWGQGTQVTVSS”, “high polyreactivity”; under “QVQLVESGGGLVQAGGSLRLSCAASGRIFSANAMGWYRQAPGKERELVAAITRGDNTYYADSVKGRFTISRDNAKNTVYLQMNSLKPEDTAVYYCATEGYQIQYEHDYWGQGTQLTVSS”, “low polyreactivity”.
Under “QVQLQESGGGLVQAGGSLRLSCAASGTISVHASMGWYRQAPGKERELVAGITDGANTYYADSVKGRFTISRDNSKNTVYLQMNSLIPEDTAVYYCAAYYGTEVHFTYWGQGTQVTVSS” stands “low polyreactivity”; under “QVQLVETVGGLDQAGGSLLLSCAASGRIFWENALGWYRQAPGKERELVAAISDSVVITYYADSVKGRFTISRDNAKNTVYLQMNSLKPEDTAVYDCAADKRGSVYLSSFWMDYWGQGTQVTVSS”, “low polyreactivity”; under “QVQIVESGGGLVQAGGSLRLSCAASGSTFGGNAMGWYRQAPGKERELVASITSSGGSTYYADSVKGRFTISRDNAKNTVYLQMNSLKPEDTAVYYCAAGKWYRSPWKYDYWGQGTQVTVSS”, “low polyreactivity”.
In the case of “QVQLVESGGGLVQAGGSLRLSCSASGSTFERYAMGWYRQAPGKERELVAAISAIGDSTYYADSVKGRFTISRDNANNTVYLQMNSLKPEDTAVYYCAAKTSDYGYYYWGQGTQVTVSS” it was “high polyreactivity”; in that of “QVQLVESGGGLVQAGGSLRLSCAASGRTFWLYAMGWYRQAPGKEREFVASISSSGDSTYYADSVKGRFTISRDNAKNTVYLQMNSLKPEDTAVYYCAARPSRRYLRNGLDYWGQGTQVTVSS”, “high polyreactivity”.
For “QVQLVESGGGLVQAGGSLRLSCAASGGTFVYYTMGWYRQAPGKERELVAAISGRGGRTYYADSVKGRFTISRDNAKQTVYLQMNSLKPEDPAVYYCTATQIGPYYLPFDSWGQGTQVTVSS”, the “polyreactivity (PSR sort gate)” value is “high polyreactivity”.
In the case of “QVQLVESGGGLVQAGGSLRLSCAASGFTIYGYVMGWYRQAPGKERELVAAISWSGGSTYYADSVKGRFTISRDNAKNTVYLQMNSLKPEDTAVYYCAAEGWSDYTSRLYDYWGQGTQVTVSS” it was “low polyreactivity”.
On to “QVQLVESGGGLVQAGGSLRLSCAASGLTFPHYTMGWYRQAPGKEREFVARITGSGGRTYYADSVKGRFTISRDNAKNTVDLQRNSLKPEVTGVYYCARDRGYQSGYDYWGQGTQVSVSS”, for which the “polyreactivity (PSR sort gate)” value is reported as “high polyreactivity”.
Under “QVQLEESGGGLVQAGGSLRLSSAASGRIYTKNAMGRYRHAPGKERELVAAITTSGGSTYYADSVKGRFTISRDNAKNSVYLQMKSLKPEDTAVYYCAAERYNGYDYWGQGTQVSVSS” stands “high polyreactivity”; under “QVQLVETGGGLVQAGGSLRLSCAASGSTFWRNSMGWYRHAPGKEREFVASISWSGGGTYYADSVKGRFTISRDNAKNTVYLQMNILKPEDTAVYYCAATPYWSYWYGNGDYDYWGQGTQVTVSS”, “low polyreactivity”.
Under “QLQLVESGGGLVQAGGSLRLSCAASGSIFRGYAMGWYRQAPGKERELVAAISWSGGRTYYADSVKGRFTISRDYAKNTVYLQMNSLKPEDTSVFYCNAASLRYSYTLFDCWGQGTQVTVSS” stands “high polyreactivity”; under “QVQLVQSGGGIVQEGGSLRLSCAASGSTFYRNTMGWYRQAPGKERELVAAISRTGASTHYADSVKGRFTISRDNAKNTVYFQMNSLKPEDTAVYYCNAVPAIGKYYGGGYWGQGTQVTVSS”, “high polyreactivity”.
In the case of “QVQLVESGGGLVQAGRSLRLTCAASGRTFLANAMGWYRQAPGKEREFVAAIDWRTGSTYYADSVKGRFTISRDNAKNSVYLQRNSLNPEDTAVYYCAKDSSSYYYAHFYYWGQGTQVTVSS” it was “high polyreactivity”; in that of “QVQLVESGGGLVQAGGSLRLSCAASGRIFYDYAMGGSRQAPGKERELVAAISKGGGSTYYADSVKGRFTISRDNAKNTVYLQMYSLKPEDTAVYYCAASSSLTTDTLYDYWGQGTQVTVSS”, “low polyreactivity”; in that of “QVQLVESRGGLVQAGGSLRLICAASGFILDTSAMGWYRQAPGKERALVAAISASGSSTYYADSVKGRFTISRDNAKNTLYLQMNSLKPEDTAVNYCAAKDTGYGYGFPRLDYWGQGTQVNVSS”, “low polyreactivity”.
For “QVQLVESGGGLVQAGGSLRLSCAASGLTFRRYDMGWNRQAPGKEREFVAAITWSTGSTYYADSVKGRFTISRDNAKNTDYLPMNSLKPEDTAVYYCAARSGYFYRYYKYDYWGQGTQVTVSS”, the “polyreactivity (PSR sort gate)” value was “high polyreactivity”.
For the sequence “QVQLVESGGGLVQAGGSLRLICAASGRTIYIYTMGWYRQAPGKERELVASISWNGGRTYYADSVKGRFTISRDNAKNTVYLQMNSLKPEDTAVYYCAAQYGVYDYLGQGTQVTVSS”, the “polyreactivity (PSR sort gate)” value is “low polyreactivity”.
For “QVQLVESGGGLVQAGGSLLLSCAASGFIFPPYDMGWYRQAPGKEMELVAGISDVGTTYYADSVKGRFTISRDNAKNTVYLQMNSLKPEDTAVYYCAAESQGDDQFWTGGYDSWGQGTQVTVSS”, the “polyreactivity (PSR sort gate)” value was “low polyreactivity”.
Consider “QVQLVESGGGLVQAGGSLRLSCAASGSIFKYNAMGWYRQAPGKEREFVAAISSSSGNTYYADSVKGRFTISRDNAKNSVYIQMNSLKPEDTAVYYCAARTFAYRRGWFGYWGQGTQVTVSS”, for which the “polyreactivity (PSR sort gate)” value is listed as “high polyreactivity”.
In the case of “QVQLVESGGGLVQAGGSLRLICAASGFIYSYYAMGWYRQAPGKERELVAVISGSGGGTYYAVSVKGRFRISRDNAKNTVYLQMNSLKPEDTAVYDFAARNSGGTTKYYYWGQGTQVTVSS”, the “polyreactivity (PSR sort gate)” value is reported as “high polyreactivity”.
Regarding “QVQLVESGGGLVQAGGSLRLSCAASGSIFYWYAMGWYRQAPGKERELVAAIDISDDTYYADSVKGRFTISRDNAKNTVYLQMNSLKPEDTAFYYCAARNTRWFYEYDWGQGTQVTVSS”, the “polyreactivity (PSR sort gate)” value is “high polyreactivity”.
With “QVQLVESGGGLVQAGGSLRLSSSASGGTFWDYAMGCYRQAPGKERELVAAINWSGDSTYADSVKGRFTISRDNAKNTCYLQMTSLKPEDTAVYYCNADVWYYRMDYWGQGTQVTVSS”, the “polyreactivity (PSR sort gate)” value is given as “low polyreactivity”.
As to “QVQLVESGGGLVQAGGSLRLSCAASGRIFYYYAMGWYRQAPGKERELVAAISWRGVSTYYADSVKGRFTISRDNAKNTVYLQMNSLKPEDTAVYYCAASQYRSPYPYRDYYTPDYDYWGQGTQVTVSS”, the “polyreactivity (PSR sort gate)” value is reported as “high polyreactivity”.
“QVQLVESGGGLVQAGGSLRLSCAASGSTFYSYAMGWYRQAPGKERELVAAISSSGGRTRYADSVKGRFTISRDNAKNTVYLQMNSLKPEDTAVYYCAARNRVRVGTRIGRIDEDYWGQGTQVTVSS”: the “polyreactivity (PSR sort gate)” value is recorded as “high polyreactivity”.
In the case of “QVQLVESGGGLVQAGGSLRLTCAASGSIFYAYAMGWYRQAPGKERELVAGITFSDDSTYYADSVKGRFTISRDNAKNTVYLQMNSLKPEDTAVYYCAADTISWYGNYYYWGQGTQVTVSS” it was “high polyreactivity”; in that of “QVQLVESVGGLVQAGGSLRLSCAASGRIFAPYAMGWYRQAPGKERELVAAIRWRGGSTSYADSVKGRFTISRDNAKNTVYLQMNSLKPEDTAVYYCNADYGFSFYWYDYWGQGTQVTVSS”, “low polyreactivity”; in that of “QVQLVESGRGLVQAGGSLRLSCAGSGSIFEGYVMGWSRQAPGKEMELVAAITSGGGSTYYADSVKGRFTSSRDNAKNTVYLQMISVKPVDTALYYCNAVYRWVYRSYEYWGQGTQGTVSS”, “high polyreactivity”.
In the case of “QVQLVESGGGLVQAGGSLRLSCAASGRTFRWNAMGWYRQAPGKERELVATIRSGDSTNYADSVKGRFTISRDNAKNTVYLQMNSLKPEDTAVYYCAAEGVSKVYWGYFGSYDYWGQGTQVTVSS” it was “low polyreactivity”; in that of “QVQLVESGGGLVQAGGSLRLSCAASGRIFWWNTMGWYRQAPGKERELVASITGSGGRTSYADSVKGRFTISRDNAKNTVYLQMNSLKPEDTAVYYCAKEHVSKWSYPYYYWGQGTQVTVSS”, “high polyreactivity”; in that of “QVQRVESGGGLVQAGGSLRLSCAASGITFRTNTMGWYRQAPGKERELVAAITWDAGSTYYADSVKGRFTISRDNAKHTVYVQMKSLKPEDTAVYYCAARLSYLYGLYPYYYWGQGTQLTVSS”, “high polyreactivity”.
Consider “QVQLVESGGGLVQAGGSLRLICAASGRTFPYNAMGWYRQAPGKEREFVAVISKGGGRTYYADSVKGRFTISRDNAKNTVYLQMNSLKPEDTAVYYCAKRIGLTFWGQGTQVTVSS”, for which the “polyreactivity (PSR sort gate)” value is “high polyreactivity”.
In the case of “QVQLVESGGGLVQAGGSLRLSCAASGFIFWLYALGWYRKAPGKERELVASINWSGGDTYYADSVKGRFTISRDNPKNTVYLQLNSLKPEDTAVYYCNAQVYRYRIGYDYWGQGPQVTVSS” it was “low polyreactivity”.
With “QVLLQESGGGLVQAGGSLRQSCAASGNIFSAGGMGWYRQAPVNERELVAGIGTGTSTNYADSVKGRFTISRDNAKNTVYLQMNSLKPEDTAVYFCAAAFYSGLSHWYWGQGTQVTVSS”, the “polyreactivity (PSR sort gate)” value is “low polyreactivity”.
Under “QVQLVESGGGLVQAGGSLRLSCAASGFTFLYNAMGWYRQAPGKERELVAAIDSGGNTNYADSVKGRFTISRDNAKNTVYLQMNSLKPEDTAVYYCAADVVSVGQGTADYDYWGQGTQVTVSS” stands “low polyreactivity”.
Under “QVQLVESGGGLVQAGGSLRLSCAASGFILDWYAMGWYRQAPGKERELVAAISYSGGSTYYADSVKGRFTISRDNAKNTVYLQMNSLKPEDTAVYYCNADIWYGDMDYWGQGTQVTVSS” stands “high polyreactivity”; under “QVQLVESGGGLVQAGGSLRLSCAASGSTFARYAMGWYRQAPGKERELVAVITRSGGSTYYADSVKGRFTISRDNAKNTVYLQMNSLKPEDTDVYYCNKYGYKGGVGYDYWGQGTQVTVSS”, “high polyreactivity”.
